Our source for the Km values is publication PMC3777949, “Dimerization Mediates Thermo-Adaptation, Substrate Affinity and Transglycosylation in a Highly Thermostable Maltogenic Amylase of Geobacillus thermoleovorans” (PLoS ONE, 2013).

Substrate in series [1]: OC[C@H]1O[C@@H]2O[C@H]3[C@H](O)[C@@H](O)[C@@H](O[C@H]4[C@H](O)[C@@H](O)[C@@H](O[C@H]5[C@H](O)[C@@H](O)[C@@H](O[C@H]6[C@H](O)[C@@H](O)[C@@H](O[C@H]7[C@H](O)[C@@H](O)[C@@H](O[C@H]1[C@H](O)[C@H]2O)O[C@@H]7CO)O[C@@H]6CO)O[C@@H]5CO)O[C@@H]4CO)O[C@@H]3CO
Briefly: DNSA reducing-sugar assay. The series is classed as biochemical, Geobacillus thermoleovorans. Particulars: 100 mM sodium phosphate pH 7.0, 80°C, dimeric mutant. The text has this: (§1) DNSA reducing-sugar assay on dimeric Gt-Mamy

Substrate in series [2]: OC[C@H]1O[C@@H]2O[C@H]3[C@H](O)[C@@H](O)[C@@H](O[C@H]4[C@H](O)[C@@H](O)[C@@H](O[C@H]5[C@H](O)[C@@H](O)[C@@H](O[C@H]6[C@H](O)[C@@H](O)[C@@H](O[C@H]7[C@H](O)[C@@H](O)[C@@H](O[C@H]8[C@H](O)[C@@H](O)[C@@H](O[C@H]1[C@H](O)[C@H]2O)O[C@@H]8CO)O[C@@H]7CO)O[C@@H]6CO)O[C@@H]5CO)O[C@@H]4CO)O[C@@H]3CO
The series is described as follows: DNSA reducing-sugar assay. Format: biochemical, Geobacillus thermoleovorans. The settings on record: 100 mM sodium phosphate pH 7.0, 80°C, dimeric mutant.
From the text: as §1

B1: dimeric Gt-Mamy (Geobacillus thermoleovorans; D109E) (protein)
chain: MRKEAIHHRSTDNFAYAYDSETLHLRLQTKKHDVDHVELLFGDPYEWHDGAWQFQTMPMRKTGSDGLFDYWFAEVKPPYRRLRYGFVLRAGDEKLVYTEKGFYHEAPSEDTAYYFCFPFLHRVDLFQAPDWVKDTVWYQIFPERFANGNPAISPKGARPWGSEDPTPTSFFGGDLQGIIDHLDYLADLGITGIYLTPIFRAPSNHKYDTADYFEIDPHFGDKETLKTLVKRCHEKGIRVMLDAVFNHCGYEFAPFQDVLKNGAASRYKDWFHIREFPLQTEPRPNYDTFAFVPQMPKLNTAHPEVKRYLLDVATYWIREFDIDGWRLDVANEIDHEFWREFRQAVKALKPDVYILGEIWHDAMPWLRGDQFDAVMNYPFTDGALRFFAKEEISARQFADIMVRLLHSYPKHVNEAAFNLLGSHDTPRLLTICGDDVRKAKLLFLFQLTFTGSPCIYYGDEIGMTGGNDPECRKCMVWDPEKQNKELYEHVKQLIALRRQYRALRRGDVAFLAADDEANHLVYEKTDGNETVMIIINRSNEAAEIPMPIDARGKWLVNLLTGERFAAEAETLCVSLPPYGFVLYAVESW
notes: full length 588 aa, pCOLD I (Ni-NTA purified, tag kept), E. coli BL21(DE3); homodimer 145 kDa separated by Sephacryl S-200
Broadly, the Km is the substrate concentration at which the rate is half of its maximum. B1: the Km turned out to be 0.21 mg/mL in series [1] and 0.60 mg/mL in series [2].
